Test results from article PMC11371828 (Nature Communications, 2024).

Assays:
[1] = target: T1, 6xHis-IKKβ(1-669) EE (human, UniProt O14920 1-669, S177E | S181E); test: pull-down
T1 sequence (looked up): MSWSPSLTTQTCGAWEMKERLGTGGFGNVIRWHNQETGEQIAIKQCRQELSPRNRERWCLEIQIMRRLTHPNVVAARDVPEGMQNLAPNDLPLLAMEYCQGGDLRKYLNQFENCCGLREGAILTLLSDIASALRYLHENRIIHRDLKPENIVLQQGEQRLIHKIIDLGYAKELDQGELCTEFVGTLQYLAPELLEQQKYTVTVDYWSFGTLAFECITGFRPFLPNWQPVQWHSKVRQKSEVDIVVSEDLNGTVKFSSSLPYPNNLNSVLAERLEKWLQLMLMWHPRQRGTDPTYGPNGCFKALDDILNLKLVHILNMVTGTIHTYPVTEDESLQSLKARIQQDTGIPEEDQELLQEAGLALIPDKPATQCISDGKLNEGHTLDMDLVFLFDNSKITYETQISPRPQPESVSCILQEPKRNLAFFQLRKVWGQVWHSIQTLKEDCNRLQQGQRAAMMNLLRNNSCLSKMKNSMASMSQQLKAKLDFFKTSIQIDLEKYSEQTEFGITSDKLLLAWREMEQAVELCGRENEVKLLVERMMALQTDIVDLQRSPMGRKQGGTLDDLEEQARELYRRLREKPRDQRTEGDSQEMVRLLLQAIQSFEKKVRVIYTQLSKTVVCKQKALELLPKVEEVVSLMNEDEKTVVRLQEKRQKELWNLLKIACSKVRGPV

[2] = target: T2, 6xHis-IKKβ(1-669) EE K480E (human, UniProt O14920 1-669, S177E | S181E | K480E); test: pull-down
T2 sequence (looked up): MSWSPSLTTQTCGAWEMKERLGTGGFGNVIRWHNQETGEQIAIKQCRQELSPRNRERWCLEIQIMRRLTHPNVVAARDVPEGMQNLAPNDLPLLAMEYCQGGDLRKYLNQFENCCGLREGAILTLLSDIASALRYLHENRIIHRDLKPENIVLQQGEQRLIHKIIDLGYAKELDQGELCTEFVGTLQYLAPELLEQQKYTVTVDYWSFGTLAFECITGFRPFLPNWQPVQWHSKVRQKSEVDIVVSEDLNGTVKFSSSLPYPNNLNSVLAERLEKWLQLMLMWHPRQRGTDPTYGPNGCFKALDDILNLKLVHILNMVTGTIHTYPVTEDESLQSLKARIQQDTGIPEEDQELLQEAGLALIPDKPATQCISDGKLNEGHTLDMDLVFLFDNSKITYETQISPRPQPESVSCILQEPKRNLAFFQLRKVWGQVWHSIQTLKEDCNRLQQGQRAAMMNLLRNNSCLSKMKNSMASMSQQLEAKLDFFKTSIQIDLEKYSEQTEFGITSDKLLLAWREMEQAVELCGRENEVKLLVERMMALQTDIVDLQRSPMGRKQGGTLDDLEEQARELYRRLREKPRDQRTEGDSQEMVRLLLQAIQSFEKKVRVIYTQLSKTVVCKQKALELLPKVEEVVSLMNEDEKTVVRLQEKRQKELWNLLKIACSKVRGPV

- binding result [1]: binds
- binding result [2]: binds
B1: MBP-IκBα pep(s) (peptide, UniProt P25963 301-317, looked up)
chain: DELPYDDCVFGGQRLTL
